Assay [1] concerns the target T1, human ROR1 on cells (HEK293T-hROR1, PANC-1, A549) (human, UniProt Q01973 30-937).
T1 construct: whole, on cells; one molecule for the three cell lines; also called huROR1; cell surface ROR1
Description: flow cytometry on PANC-1 cells, MFI (APC-A Median). On the procedure:
(§1) Binding of recombinant anti-ROR1 antibodies to human or cynomolgus ROR1-overexpressing cells was tested by flow cytometry. In this example, ROR1-expressing cell lines are HEK293T cell lines that had been transfected to express human ROR1 on the surface (HEK293T-hu ROR1, KYINNO BIOTECHNOLOGY CO., LTD, Catalog #KC-1018), CHO-K1 cell lines that had been transfected to express cynomolgus ROR1 (CHOK1-cyno ROR1), PANC-1 (ATCC, catalog: CRL-1469) or A549 cell lines (Shanghai Institute of Biochemistry and Cell Biology, Chinese Academy of Sciences).
(§2) In brief, anti-ROR1 antibodies were serially diluted in staining buffer (PBS containing 2% FBS). Antibody solution was incubated with 1×10⁵ cells at 4° C. for 1 hour. […] After 1-hour incubation at 4° C., cells were washed twice with staining buffer and subjected to flow cytometry. PR000374 (Bench marker 1) and non-relevant IgG isotype control (Crownbio) were used as positive and negative controls, respectively.
Background: A flow cytometer gives signals particle by particle.

The target of assay [2] is T1, human ROR1 on cells (HEK293T-hROR1, …). Nature of the assay: flow cytometry, PANC-1 cells. The protocol: as §2
Assay [3] has as its target T2, cynomolgus ROR1 on CHO-K1-cynoROR1 cells (cynomolgus monkey, UniProt A0A2K5WTX7 30-937).
T2 construct: whole, on cells
Nature of the assay: flow cytometry, CHO-K1-cynoROR1 cells. On the procedure: as §1, §2

The target in assay [4] is T2, cynomolgus ROR1 on CHO-K1-cynoROR1 cells. Description: flow cytometry on CHOK1-cynoROR1 cells, MFI (APC-A Median) [top panel]. On the procedure:
as §1, §2

Assay [5] addresses T1, human ROR1 on cells (HEK293T-hROR1, …). Nature of the assay: flow cytometry, PANC-1 cells. The protocol:
as §2
Binding activity of the variants to PANC-1 cells were tested using the same method described in example 5.1. The results were shown in FIGS. 7-8 and Table 11 and Table 12.
The source holds these as a separate data set.

Assay [6] shares this target. Nature of the assay: flow cytometry on PANC-1 cells, MFI (Median-APC) [top panel].
Assay [7] shares this target. Description: flow cytometry on PANC-1 cells, MFI (Median-APC) [middle panel, letter not given].
The target is the same in assay [8]. Description: flow cytometry on PANC-1 cells, MFI (Median-APC) [bottom panel, letter not given].

T1 sequence (Q01973 30-937): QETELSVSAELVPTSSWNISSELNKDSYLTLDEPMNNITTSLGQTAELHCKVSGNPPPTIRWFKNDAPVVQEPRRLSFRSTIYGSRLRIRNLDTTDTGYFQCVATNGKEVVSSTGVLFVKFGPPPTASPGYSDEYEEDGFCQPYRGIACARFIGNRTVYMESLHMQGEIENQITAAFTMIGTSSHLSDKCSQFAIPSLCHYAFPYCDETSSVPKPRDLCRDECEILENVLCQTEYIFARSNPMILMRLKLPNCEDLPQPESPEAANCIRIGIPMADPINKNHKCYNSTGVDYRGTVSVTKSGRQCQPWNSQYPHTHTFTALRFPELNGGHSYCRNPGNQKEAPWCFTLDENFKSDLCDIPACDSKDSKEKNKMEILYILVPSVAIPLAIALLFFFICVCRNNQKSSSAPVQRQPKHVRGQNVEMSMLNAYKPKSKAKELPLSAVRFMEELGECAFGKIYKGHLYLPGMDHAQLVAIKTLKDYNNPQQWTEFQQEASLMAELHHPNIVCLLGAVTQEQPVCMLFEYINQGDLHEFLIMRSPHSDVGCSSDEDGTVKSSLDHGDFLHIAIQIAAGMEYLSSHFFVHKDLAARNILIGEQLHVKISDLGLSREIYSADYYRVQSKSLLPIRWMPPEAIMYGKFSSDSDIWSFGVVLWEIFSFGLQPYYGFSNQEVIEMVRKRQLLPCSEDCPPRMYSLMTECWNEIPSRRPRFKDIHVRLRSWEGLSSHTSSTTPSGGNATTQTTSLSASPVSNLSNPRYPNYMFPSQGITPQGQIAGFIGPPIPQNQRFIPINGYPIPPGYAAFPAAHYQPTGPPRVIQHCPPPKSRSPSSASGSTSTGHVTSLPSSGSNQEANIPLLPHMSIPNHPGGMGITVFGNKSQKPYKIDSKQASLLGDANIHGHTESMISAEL

B1: PR005341 (antibody, human IgG1, V domains shown)
VH: EVQLVESGGGLVKPGGSLRLSCVASGFTFSDYYMSWIRQAPGKGLEWISYISSSGSSIYYAESVKGRFTISRDNAKNSLYLQMNRLRAEDTALYYCARTPPSSDNWYEDFDYWGQGALVTVSS
notes: HCAb (heavy chain-only, human IgG1 Fc), no light chain
The term EC50 (read off the curve) denotes the concentration giving half of the maximal effect. Low readings indicate higher potency in that assay, high ones lower potency in that assay. In the case of B1, the “EC50 (read off the curve)” value in assay [1] is approximately 2 nM; in assay [4] it was approximately 3 nM. For the same molecule, the Max in assay [2] was 16500; in assay [3] it was 32900.

B2: PR005337 (antibody, human IgG1, V domains shown)
VH: EVQLVESGGGLVKPGGSLRLSCAASGFIFSDYYMSWIRQAPGKGLEWVSYISSSGSTIHYADSVKGRFTVSRDNAKNSLYLQMNSLRTEDTAVYYCARDPPTSNSDWVSLHFDHWGQGTLVTVSS
notes: as for B1
Consider B2, for which the concentration for a half-maximal effect (EC50 (read off the curve)) in assay [1] and in assay [4] was approximately 20 nM each time. The Max in assay [2] turned out to be 14700; in assay [3], 31100.

B3: PR007411 (antibody, V domains shown)
VH: EVQLVESGGGLVKPGGSLRLSCAASGFTFSDFYMSWIRQAPGKGLEWISYISSSGSTIHYADSVKGRFTISRDNAKNSLYLQMNSLRAEDTAIYYCARDMPSSSSDWVDLQFDYWGQGTLVTVSS
notes: bivalent form (HCAb) variant of PR005340, no light chain
B3 registered a TOP in assay [5] of 81400. Besides, the “EC50 (read off the curve)” value in assay [6] was approximately 0.7 nM.

B4: PR007415 (antibody, V domains shown)
VH: EVQLVESGGGLVKPGGSLRLSCAASGFTFSDFYMSWIRQAPGKGLEWISYIDSSGRPLAYADSVKGRFTISRDNAKNSLYLQMNSLRAEDTAIYYCARDMPSSSSDWVDLQFDYWGQGTLVTVSS
notes: as for B3
As to B4, in assay [5], the TOP turned out to be 82800. The “EC50 (read off the curve)” value in assay [7] is approximately 0.4 nM.

B5: PR007419 (antibody, V domains shown)
VH: EVQLVESGGGLVKPGGSLRLSCAASGFTFSDFYMSWIRQAPGKGLEWISYINTRGSPIGYADSVKGRFTISRDNAKNSLYLQMNSLRAEDTAIYYCARDMPSSSSDWVSLQFDYWGQGTLVTVSS
notes: as for B3
B5 showed a TOP in assay [5] of 75700. Besides, the “EC50 (read off the curve)” value in assay [8] is approximately 0.8 nM.

B6: PR007412 (antibody, V domains shown)
VH: EVQLVESGGGLVKPGGSLRLSCAASGFTFSDFYMSWIRQAPGKGLEWISYISSSGSWIHYADSVKGRFTISRDNAKNSLYLQMNSLRAEDTAIYYCARDMPSSSSDWVSLQFDYWGQGTLVTVSS
notes: as for B3
For B6, in assay [5], the TOP came out at 77200. Further, the 50% effective concentration (EC50 (read off the curve)) in assay [6] is approximately 0.5 nM.

B7: PR007408 (antibody, V domains shown)
VH: EVQLVESGGGLVKPGGSLRLSCAASGFTFSDFYMSWIRQAPGKGLEWISYISSSGSYIHYADSVKGRFTISRDNAKNSLYLQMNSLRAEDTAIYYCARDMPSSSSDWVDLQFDYWGQGTLVTVSS
notes: as for B3
Consider B7, for which, in assay [5], the TOP was found to be 87000. Besides, the 50% effective concentration (EC50 (read off the curve)) in assay [6] was approximately 0.4 nM.

B8: PR007414 (antibody, V domains shown)
VH: EVQLVESGGGLVKPGGSLRLSCAASGFTFSDFYMSWIRQAPGKGLEWISYISSSGSTRYYADSVKGRFTISRDNAKNSLYLQMNSLRAEDTAIYYCARDMPSSSSDWVDLQFDYWGQGTLVTVSS
notes: as for B3
Turning to B8, the TOP in assay [5] came to 88900. Moreover, in assay [7], the 50% effective concentration (EC50 (read off the curve)) is approximately 0.5 nM.

B9: PR007418 (antibody, V domains shown)
VH: EVQLVESGGGLVKPGGSLRLSCAASGFTFSDFYMSWIRQAPGKGLEWISYIDSSGRPLAYADSVKGRFTISRDNAKNSLYLQMNSLRAEDTAIYYCARDIPSSSSDWVDLQFDYWGQGTLVTVSS
notes: as for B3
The molecule B9 registered a TOP in assay [5] of 81300. For the same molecule, the “EC50 (read off the curve)” value in assay [7] was approximately 0.4 nM.

B10: PR007409 (antibody, V domains shown)
VH: EVQLVESGGGLVKPGGSLRLSCAASGFTFSDFYMSWIRQAPGKGLEWISYISSSGSWIHYADSVKGRFTISRDNAKNSLYLQMNSLRAEDTAIYYCARDIPSSSSDWVDLQFDYWGQGTLVTVSS
notes: as for B3
On to B10, for which the TOP in assay [5] was 87400. Further, the 50% effective concentration (EC50 (read off the curve)) in assay [6] was approximately 0.8 nM.

B11: PR007420 (antibody, V domains shown)
VH: EVQLVESGGGLVKPGGSLRLSCAASGFTFSDFYMSWIRQAPGKGLEWISYISSSGSTRYYADSVKGRFTISRDNAKNSLYLQMNSLRAEDTAIYYCARDMPSSSSDWVSLQFDYWGQGTLVTVSS
notes: as for B3
B11 gave a TOP in assay [5] of 79500. The concentration giving a half-maximal response (EC50 (read off the curve)) in assay [8] was approximately 0.7 nM.

B12: PR007413 (antibody, V domains shown)
VH: EVQLVESGGGLVKPGGSLRLSCAASGFTFSDFYMSWIRQAPGKGLEWISYINTRGSPIGYADSVKGRFTISRDNAKNSLYLQMNSLRAEDTAIYYCARDMPSSSSDWVDLQFDYWGQGTLVTVSS
notes: as for B3
Take B12: the TOP in assay [5] stood at 89800. Further, the “EC50 (read off the curve)” value in assay [7] is approximately 0.6 nM.

B13: PR007410 (antibody, V domains shown)
VH: EVQLVESGGGLVKPGGSLRLSCAASGFTFSDFYMSWIRQAPGKGLEWISYISSSGSYIHYADSVKGRFTISRDNAKNSLYLQMNSLRAEDTAIYYCARDIPSSSSDWVDLQFDYWGQGTLVTVSS
notes: as for B3
For the molecule B13, in assay [5], the TOP worked out at 80300. The “EC50 (read off the curve)” value in assay [6] is approximately 0.8 nM.

B14: PR007422 (antibody, V domains shown)
VH: EVQLVESGGGLVKPGGSLRLSCAASGFTFSDFYMSWIRQAPGKGLEWISYIDSSGRPLAYADSVKGRFTISRDNAKNSLYLQMNSLRAEDTAIYYCARDIPSSSSDWVSLQFDYWGQGTLVTVSS
notes: as for B3
In assay [5], B14 displayed a TOP of 73600. Besides, the half-maximal effective concentration (EC50 (read off the curve)) in assay [8] was approximately 0.6 nM.

B15: PR007423 (antibody, V domains shown)
VH: EVQLVESGGGLVKPGGSLRLSCAASGFTFSDYYMSWIRQAPGKGLEWISYIDSSGRPLAYADSVKGRFTISRDNAKNSLYLQMNSLRAEDTAIYYCARDIPSSSSDWVDLQFDYWGQGTLVTVSS
notes: as for B3
In turn, B15 displayed a TOP in assay [5] of 74500. Also, the “EC50 (read off the curve)” value in assay [8] is approximately 0.4 nM.

B16: PR007416 (antibody, V domains shown)
VH: EVQLVESGGGLVKPGGSLRLSCAASGFTFSDFYMSWIRQAPGKGLEWISYINTRGSPIGYADSVKGRFTISRDNAKNSLYLQMNSLRAEDTAIYYCARDIPSSSSDWVDLQFDYWGQGTLVTVSS
notes: as for B3
Take B16: the TOP in assay [5] came out at 87600. In addition, in assay [7], the concentration for a half-maximal effect (EC50 (read off the curve)) was approximately 0.7 nM.

Source of the values: patent US20250257130A1 (NONA BIOSCIENCES SUZHOU, published 2025).
